According to patent US12098206B2, “PDGF receptor antibody and use thereof” (Seoul National University R&DB Foundation, priority 2018, dated 2024):

T1: mPDGFR-β (Mus musculus, UniProt P05622)
T1 construct: mPDGFR-β
T1 sequence (P05622 32-530): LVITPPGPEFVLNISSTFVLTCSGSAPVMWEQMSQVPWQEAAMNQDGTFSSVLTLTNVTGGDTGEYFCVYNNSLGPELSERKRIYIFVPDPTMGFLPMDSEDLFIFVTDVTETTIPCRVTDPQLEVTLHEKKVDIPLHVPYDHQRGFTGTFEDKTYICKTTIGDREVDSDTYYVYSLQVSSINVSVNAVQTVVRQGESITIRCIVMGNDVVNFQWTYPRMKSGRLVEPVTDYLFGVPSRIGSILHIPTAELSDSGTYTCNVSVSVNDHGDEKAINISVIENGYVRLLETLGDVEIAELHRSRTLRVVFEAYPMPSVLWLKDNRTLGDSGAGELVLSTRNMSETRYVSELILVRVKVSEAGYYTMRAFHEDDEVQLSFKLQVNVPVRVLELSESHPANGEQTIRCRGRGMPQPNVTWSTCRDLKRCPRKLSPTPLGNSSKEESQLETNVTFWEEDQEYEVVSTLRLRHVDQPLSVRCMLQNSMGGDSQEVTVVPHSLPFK

B1: PRb-CN16: anti-hPDGFR-β scFv clone (VH SEQ ID NO 39, VL SEQ ID NO 40), tested as scFv-Cκ-anti-cotinine scFv bispecific antibody (antibody, V domains shown)
VH: AVTLDESGGGLQTPGTALSLVCKASGFTFSSFNMAWVRQAPGKGLEFVGEISNTAGSTFYAPAVKGRATISRDNGQSTVRLQLNNLRAEDTAIYYCAKAAGTCYSHSCTGYIDAWGHGTEVIVSSTS
VL: LTQPSSVSANPGETVKITCSGSSSSYGWYQQKSPGSAPVTLIYENNQRPSNIPSRFSGSKSGSTGTLTITGVQAEDEAVYYCGNADRSNSAGTFGAGTTLTVL
modifications: VH of PRb-CN16; VL of PRb-CN16
B2: PRb-CN32: anti-hPDGFR-β scFv clone (VH SEQ ID NO 47, VL SEQ ID NO 48), tested as scFv-Cκ-anti-cotinine scFv bispecific antibody (antibody, V domains shown)
VH: AVTLDESGGGLQTPRGTLSLVCKASGFTFSSFNMFWVRQAPGKGLEFVAGISTTGRYTGYGSAVQGRGTISRDNGQSTVRLQLNNLRAEDTGTYYCAKSAGSTYSYWDSDAGLIDAWGHGTEVIVSSTS
VL: LTQPSSVSANLGETVKITCSGGSNAGSYYYGWYQQKSPGSAPVTVIYSNNQRPSDIPSRFSGSTSGSTSTLTITGVQVDDEAVYFCGSGDSSSIAAFGAGTTLTVL
modifications: VH of PRb-CN32; VL of PRb-CN32
B3: PRb-CN26: anti-hPDGFR-β scFv clone (VH SEQ ID NO 55, VL SEQ ID NO 56), tested as scFv-Cκ-anti-cotinine scFv bispecific antibody (antibody, V domains shown)
VH: AVTLDESGGGLQTPGGGLSLVCKASGFTFSDRGIHWVRQAPGKGLEWVAGIGNTGSYTAYAPAVKGRATISRDNGQSTVRLQLNNLRAEDTATYYCAKRGFMDAGGIDAWGHGTEVIVSSTS
VL: LTQPSSVSANPGETVKITCSGGGSYAGSYYYGWYQQKSPGSAPVTVIYDNTNRPSNIPSRFSGSLSGSTDTLTITGVQAEDEAVYFCGGYDGISDTGIFGAGTTLTVL
modifications: VH of PRb-CN26; VL of PRb-CN26

How the values were obtained:
Sus scrofa PDGFR-β = experiment: Cross-species enzyme immunoassay, Sus scrofa PDGFR-β; format: binding; details: 100 nM; FIG. 17
Sequence of Sus scrofa PDGFR-β (as listed by the source): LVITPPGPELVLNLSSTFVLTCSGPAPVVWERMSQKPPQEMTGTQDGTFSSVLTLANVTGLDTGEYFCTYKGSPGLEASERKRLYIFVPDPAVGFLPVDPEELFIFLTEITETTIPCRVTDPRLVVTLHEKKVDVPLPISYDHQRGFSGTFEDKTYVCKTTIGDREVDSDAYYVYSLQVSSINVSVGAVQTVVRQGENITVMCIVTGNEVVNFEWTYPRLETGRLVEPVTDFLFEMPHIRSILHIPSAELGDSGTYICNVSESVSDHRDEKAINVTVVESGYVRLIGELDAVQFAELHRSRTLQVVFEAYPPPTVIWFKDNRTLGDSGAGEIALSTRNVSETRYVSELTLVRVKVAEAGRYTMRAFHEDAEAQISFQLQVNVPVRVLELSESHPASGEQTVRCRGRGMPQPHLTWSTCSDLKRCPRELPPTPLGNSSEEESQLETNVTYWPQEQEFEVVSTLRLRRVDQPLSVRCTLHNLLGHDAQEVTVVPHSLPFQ
Experimental: (§1) 100 ng of hPDGFR-β, mPDGFR-β, rhesus PDGFR-β (90215-C02H, Sino Biological Inc. Beijing, China), cynomolgus monkey PDGFR-β, Sus scrofa PDGFR-β-Fc chimera or TNF-α receptor extracellular domain-human Fc fusion protein was coated with 4° C. temperature O/N. After blocking the wells, sequential culture of the anti-hPDGFR-β scFv-Cκ-scFv fusion protein and the HRP conjugated anti-human Cκ antibody was followed in the same manner as in Example 3.
(§2) FIG. 17 is a graph showing an experiment of the cross-species reaction of the bispecific antibody against the anti-hPDGFR-β antibody according to the present invention. On the microtiter plates coated with hPDGFR-β, mPDGFR-β, Rhesus PDGFR-β, Cynomolgus monkey PDGFR-β, Sus scrofa PDGFR-β and control Fc coated, the bispecific antibody containing anti-hPDGFR-β antibody according to the present invention (100 nM) was reacted and the amount of bound bispecific antibody was measured using HRP conjugated anti-human Cκ antibody and TMB.

[1] = test system: Cynomolgus monkey PDGFR-β; experiment: Cross-species enzyme immunoassay, Cynomolgus monkey PDGFR-β; format: binding; details: 100 nM; FIG. 17
Sequence of Cynomolgus monkey PDGFR-β (as listed by the source): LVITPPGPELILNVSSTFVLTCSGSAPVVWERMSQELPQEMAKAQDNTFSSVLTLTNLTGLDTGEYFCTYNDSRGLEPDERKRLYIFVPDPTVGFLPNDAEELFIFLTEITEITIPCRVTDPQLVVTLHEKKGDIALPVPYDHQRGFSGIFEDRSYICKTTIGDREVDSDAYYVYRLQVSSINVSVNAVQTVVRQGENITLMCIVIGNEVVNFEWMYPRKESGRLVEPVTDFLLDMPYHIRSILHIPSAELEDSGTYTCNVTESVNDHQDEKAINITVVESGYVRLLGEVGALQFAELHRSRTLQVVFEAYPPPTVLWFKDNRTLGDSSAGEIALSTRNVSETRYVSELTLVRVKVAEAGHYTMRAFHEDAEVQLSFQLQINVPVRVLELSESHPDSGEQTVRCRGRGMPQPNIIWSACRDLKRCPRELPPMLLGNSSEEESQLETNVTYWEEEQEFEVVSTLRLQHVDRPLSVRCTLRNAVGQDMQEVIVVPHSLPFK
Experimental: as §1, §2

[2] = target: T2, human pericyte cells expressing hPDGFR-β (Homo sapiens, UniProt P09619); experiment: Flow cytometry binding to human pericyte cells expressing hPDGFR-β; details: 100 nM antibody, FIG. 13b
T2 construct: host or cells: human pericyte cells
T2 sequence (P09619 33-1106): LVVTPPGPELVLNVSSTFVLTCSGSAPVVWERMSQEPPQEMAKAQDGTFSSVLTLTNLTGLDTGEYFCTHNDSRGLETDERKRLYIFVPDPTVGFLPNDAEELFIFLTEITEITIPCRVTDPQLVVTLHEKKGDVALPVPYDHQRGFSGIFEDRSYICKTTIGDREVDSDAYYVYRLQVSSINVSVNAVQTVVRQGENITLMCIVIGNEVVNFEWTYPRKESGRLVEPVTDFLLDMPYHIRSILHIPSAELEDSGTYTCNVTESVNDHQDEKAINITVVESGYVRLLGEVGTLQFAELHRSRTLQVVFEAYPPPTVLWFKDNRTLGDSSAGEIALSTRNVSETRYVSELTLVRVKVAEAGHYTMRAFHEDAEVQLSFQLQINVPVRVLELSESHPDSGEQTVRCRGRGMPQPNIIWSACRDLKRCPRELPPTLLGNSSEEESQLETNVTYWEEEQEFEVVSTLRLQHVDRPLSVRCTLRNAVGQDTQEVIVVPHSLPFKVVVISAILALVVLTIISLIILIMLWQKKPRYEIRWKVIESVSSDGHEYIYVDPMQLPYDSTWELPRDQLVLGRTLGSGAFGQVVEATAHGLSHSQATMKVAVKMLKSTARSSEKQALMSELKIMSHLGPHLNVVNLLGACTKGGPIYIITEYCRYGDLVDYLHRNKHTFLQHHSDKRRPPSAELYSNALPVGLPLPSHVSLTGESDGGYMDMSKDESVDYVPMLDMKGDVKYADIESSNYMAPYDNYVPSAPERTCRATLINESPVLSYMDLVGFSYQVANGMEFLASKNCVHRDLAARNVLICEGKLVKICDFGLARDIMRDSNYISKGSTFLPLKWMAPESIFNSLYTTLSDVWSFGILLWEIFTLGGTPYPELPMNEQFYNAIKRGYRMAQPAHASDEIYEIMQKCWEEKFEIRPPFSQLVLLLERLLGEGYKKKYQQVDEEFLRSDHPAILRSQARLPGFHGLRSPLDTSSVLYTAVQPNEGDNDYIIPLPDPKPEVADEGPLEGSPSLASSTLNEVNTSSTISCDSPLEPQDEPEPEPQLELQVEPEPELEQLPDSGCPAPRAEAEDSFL
Experimental: Human pericyte cells were cultured at 4° C. for 1 hour using the bispecific antibody of scFv-Cκ-scFv fusion protein (100 nM) under two different conditions with or without hPDGF-BB-biotin (100 nM, BT220; R&D systems). The cells were washed 4 times with flow cytometry buffer and cultured with allophycocyanin (APC)-anti-human Cκ antibody (clone TB28-2; BD Biosciences, San Jose, CA, USA) and streptavidin-phycoerythrin (PE) (12-4317-87; eBioscience, ThermoFisher). After washing, it was classified and analyzed with a FACS Canto II instrument (BD Biosciences, San Jose, CA, USA). 10,000 cells were used for each measurement, and the results were analyzed by FlowJo (Tree Star, Ashland, OR, USA).

PDGFR-β [3] = target: T3, PDGFR-β (Homo sapiens, UniProt P09619); experiment: Enzyme immunoassay on hPDGFR-β-Fc chimera coated plate; format: binding; set-up: made in house; details: 100 nM; FIG. 17
T3 sequence (P09619 33-531): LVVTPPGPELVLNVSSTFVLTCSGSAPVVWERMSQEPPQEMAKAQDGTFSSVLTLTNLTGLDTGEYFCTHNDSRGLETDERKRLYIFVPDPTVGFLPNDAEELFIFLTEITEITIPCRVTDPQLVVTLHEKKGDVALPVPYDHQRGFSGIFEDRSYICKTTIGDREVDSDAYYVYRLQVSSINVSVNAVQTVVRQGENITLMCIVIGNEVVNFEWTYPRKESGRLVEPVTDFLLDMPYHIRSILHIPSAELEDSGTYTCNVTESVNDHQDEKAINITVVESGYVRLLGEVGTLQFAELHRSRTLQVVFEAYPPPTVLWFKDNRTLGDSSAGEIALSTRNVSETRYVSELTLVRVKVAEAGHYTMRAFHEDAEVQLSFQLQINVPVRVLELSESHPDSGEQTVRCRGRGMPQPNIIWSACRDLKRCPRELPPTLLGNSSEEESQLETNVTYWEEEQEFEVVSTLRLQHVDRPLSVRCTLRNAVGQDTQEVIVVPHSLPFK
Experimental: 100 ng of hPDGFR-β-Fc chimera in the coating buffer or extracellular region of TNF-α receptor-human Fc fusion protein was coated on a microtiter plate at 4° C. O/N. Each well was blocked with 150 μL of 3% (w/v) BSA (bovine serum albumin) in PBS as a blocking agent at 37° C. for 1 hour. After treatment with various concentrations of bispecific antibodies of scFv-Cκ-scFv fusion protein (0.01 nM-1 μM), the analysis was performed in the same protocol of the concentration-dependent binding ability of anti-mPDGFRR-β scFv-Cκ-scFv fusion protein.
as §1

mPDGFR-β = target: T1, mPDGFR-β; experiment: Cross-species enzyme immunoassay, mPDGFR-β; format: binding; details: 100 nM; FIG. 17
Experimental: as §1, §2

Rhesus PDGFR-β = target: T4, Rhesus PDGFR-β (Macaca mulatta, UniProt I0FLK2); experiment: Cross-species enzyme immunoassay, Rhesus PDGFR-β; format: binding; details: 100 nM; FIG. 17
T4 construct: Fc; purchased Sino Biological Inc. 90215-C02H
Experimental: as §1, §2

hPDGFR-β and cotinine = target: T5, hPDGFR-β and cotinine (Homo sapiens, UniProt P09619); experiment: Enzyme immunoassay, simultaneous binding to cotinine and hPDGFR-β; details: cotinine-BSA coated wells, then hPDGFR-β-Fc chimera; FIG. 12d
T5 construct: made in house
T5 sequence (P09619 33-531): as above
Experimental: In order to determine of the simultaneous binding ability of cotinine and hPDGFR-β, an anti-hPDGFR-β x cotinine scFv-Cκ-scFv fusion protein was cultured in wells coated with cotinine-BSA. Washing was performed for each process, and hPDGFR-β-Fc chimeric protein and HRP-anti human Fc antibody were incubated in order. The three kinds of bispecific antibody scFv-Cκ-scFv fusion proteins simultaneously bound to hPDGFR-β and cotinine (FIG. 12d).

PDGFR-β [4] = target: T3, PDGFR-β; experiment: Competition enzyme immunoassay with hPDGF-BB; format: binding; set-up: made in house; details: hPDGF-BB 100 nM
Experimental: In order to confirm the competition between the bispecific antibody scFv-Cκ-scFv and hPDGF-BB, as in Example 3, hPDGFR-β-Fc chimera was coated on a microtiter plate and then blocked. The microtiter plate was treated with various concentrations of the bispecific antibody (0.01 nM-1 μM) with or without addition of hPDGF-BB (100 nM; 220-BB; R&D systems), and then incubated at 37° C. for 2 hours. The washing, incubation, and detection were performed in the same manner as the enzyme immunoassay described above.

A-431 cells = experiment: Cytotoxicity in A-431 cells not expressing hPDGFR-β; format: cell-based; details: complex with cot-duo (DAR4); FIG. 16
Experimental: FIG. 16 is a graph showing that cytotoxicity assays of bispecific antibody related with anti-hPDGFR-β antibody complexed with cot-duo complexes on the cells not expressing hPDGFR-β. A-431 cells were treated with anti-hPDGFR-β x cotinine fusion protein and cot-duo (DAR4). The cellular ATP levels were measured to determine relative cell viability. Bispecific anti-mCD154 x cotinine scFv-Cκ-scFv fusion protein was used as a negative control. DMSO was used as a vehicle control of cot-duo. Results are shown as the mean±SD acquired from three repetitive experiments.
All of the anti-hPDGFR-β x cotinine scFv-Cκ-scFv fusion proteins had not higher toxicity than the control antibody anti-mCD154 x cotinine scFv-Cκ-scFv fusion protein (FIG. 16). Therefore, as a result of anti-proliferative analysis result, the bispecific antibody/cot-duo complex had higher cytotoxicity in the human pericyte cell lines expressing hPDGFR-β, compared to the control anti-mCD154 x cotinine scFv-Cκ-scFv, but there was no difference in cytotoxicity in A-431 not expressing hPDGFR-β, compared to the control anti-mCD154 x cotinine scFv-Cκ-scFv.

| Molecule | cross-species binding, Sus scrofa PDGFR-β (Sus scrofa PDGFR-β) | cross-species binding, Cynomolgus monkey PDGFR-β [1] | cell binding in the presence of hPDGF-BB-biotin [2] | cross-species binding, hPDGFR-β (PDGFR-β [3]) | cross-species binding, mPDGFR-β (mPDGFR-β) | cross-species binding, Rhesus PDGFR-β (Rhesus PDGFR-β) | simultaneous binding to hPDGFR-β and cotinine (hPDGFR-β and cotinine) | binding ability to hPDGFR-β in the presence of hPDGF-BB (PDGFR-β [4]) | toxicity in A-431 cells compared to control anti-mCD154 x cotinine scFv-Cκ-scFv (A-431 cells) |
| --- | --- | --- | --- | --- | --- | --- | --- | --- | --- |
| B1 | confirmed to bind | confirmed to bind | able to bind to hPDGFR-β in the presence of hPDGF-BB-biotin | confirmed to bind | confirmed to bind | confirmed to bind | capable of simultaneously binding hPDGFR-β and cotinine | not inhibited in the presence of hPDGF-BB | equivalent cytotoxicity |
| B2 | confirmed to bind | confirmed to bind | able to bind to hPDGFR-β in the presence of hPDGF-BB-biotin | confirmed to bind | confirmed to bind | confirmed to bind | capable of simultaneously binding hPDGFR-β and cotinine | not inhibited in the presence of hPDGF-BB | equivalent cytotoxicity |
| B3 | confirmed to bind | confirmed to bind | able to bind to hPDGFR-β in the presence of hPDGF-BB-biotin | confirmed to bind | confirmed to bind | confirmed to bind | capable of simultaneously binding hPDGFR-β and cotinine | not inhibited in the presence of hPDGF-BB | equivalent cytotoxicity |
